Experimental data: patent US11278600B2, “Human alpha-galactosidase variants” (Codexis, Inc., priority 2014, dated 2022)
Substitutions are numbered along the chain they refer to.

B1: 39 (protein)
chain: LDNGLARTPTMGWLHWERFMCNLDCQEEPDSCISEKLFMEMAELMVSEGWKDAGYEYLCIDDCWMAPQRDSEGRLQADPQRFPHGIRQLANYVHSKGLKLGIYADVGNKTCAGFPGSFGYYDINAQTFADWGVDLLKFDGCYCDSLGNLADGYKHMSLALKQVGASSIVXCEWPLYSWPFQKPNYTEIRQYCNHWRNFADIDDSWKSIKSILDWTSENQERIVDVAGPGGWNDPDMLVIGNFGLSWNQQVTQMALWAIMAAPLFMSNDLRHISPQAKALLQDKDVIAINQDPLGKQGYQLRQGDNFEVWERPLSGLAWAVAMINRQEIGGPRSYTIAVASLGKGVACNPACFITQLLPVKRKLGFYEWTSRLRSHINPTGTVLLQLENTMQMSKDLLL
modifications: Synthetic Polypeptide sequence of Variant No. 39 of mature Human GLA; VARIANT (170)..(170): Xaa = any amino acid or absent
B2: 158 (protein)
chain: LDNGLARTPTMGWLHWERFMCNLDCQEEPDSCISEKLFMEMAELMVSEGWKDAGYEYLCIDDCWMAPQRDSEGRLQADPQRFPHGIKQLANYVHSKGLKLGIYADVGNKTCAGFPGSFGYYDIDAQTFADWGVDLLKFDGCYCDSLENLADGYKHMSLALNRTGRSIVYSCEWPLYMWPFQKPNYTEIRQYCNHWRNFADIDDSWKSIKSILDWTSFNQERIVDVAGPGGWNDPDMLVIGNFGLSWNQQVTQMALWAIMAAPLFMSNDLRHISPQAKALLQDKDVIAINQDPLGKQGYQLRQGDNFEVWERPLSGLAWAVAMINRQEIGGPRSYTIAVASLGKGVACNPACFITQLLPVKRKLGFYEWTSRLRSHINPTGTVLLQLENTMQMSKDLLL
modifications: Synthetic Polypeptide sequence of Variant No. 158 of mature Human GLA
B3: 169 (protein)
chain: B2 chain with K87R, S374T
modifications: Synthetic Polypeptide sequence of Variant No. 169 of mature Human GLA
B4: 164 (protein)
chain: B2 chain with S34D, K87R, M392P
modifications: Synthetic Polypeptide sequence of Variant No. 164 of mature Human GLA
B5: 168 (protein)
chain: B2 chain with K87R, S374M
modifications: Synthetic Polypeptide sequence of Variant No. 168 of mature Human GLA
B6: 167 (protein)
chain: B2 chain with S34R, K87R
modifications: Synthetic Polypeptide sequence of Variant No. 16 of mature Human GLA
B7: 161 (protein)
chain: B2 chain with K87R, S166H
modifications: Synthetic Polypeptide sequence of Variant No. 161 of mature Human GLA
B8: 166 (protein)
chain: B2 chain with S34H, K87R, M390R
modifications: Synthetic Polypeptide sequence of Variant No. 166 of mature Human GLA
B9: 162 (protein)
chain: B2 chain with K87R, S166K
modifications: Synthetic Polypeptide sequence of Variant No. 162 of mature Human GLA
B10: 159 (protein)
chain: B2 chain with K87P, L398R
modifications: Synthetic Polypeptide sequence of Variant No. 159 of mature Human GLA
B11: 163 (protein)
chain: B2 chain with S31D, K87R
modifications: Synthetic Polypeptide sequence of Variant No. 163 of mature Human GLA
B12: 165 (protein)
chain: B2 chain with S34G, K87R
modifications: Synthetic Polypeptide sequence of Variant No. 165 of mature Human GLA
B13: 160 (protein)
chain: B2 chain with K87R, S166A
modifications: Synthetic Polypeptide sequence of Variant No. 160 of mature Human GLA

Key:
Assay type in all cases: biochemical
[1] = HTP-analysis of yeast culture supernatants, no challenge (MUGal hydrolysis); conditions: activity of the variant/activity of WT GLA (SEQ ID NO: 5), yeast supernatant
How it was run: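 GLA variants expressed in yeast INVSc1, secreted into SD-Ura broth over 66-84 h at 30° C; clarified supernatants tested without challenge. Supernatant mixed with McIlvaine buffer pH 4.8 and 2 mM MUGal (citrate/KCl, pH 4.6), 37° C for 30-180 min, carbonate-quenched, fluorescence Ex 355/Em 448 nm.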

[2] = HTP-analysis of supernatants pretreated with acid (MUGal hydrolysis); conditions: challenge at pH 4.2; activity of the variant/activity of WT GLA (SEQ ID NO: 5); yeast supernatant
How it was run: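 Yeast INVSc1 supernatant, GLA variants; acid challenge: McIlvaine pH 3.3-4.3, 37° C., 1-3 h. Assay: MUGal in McIlvaine pH 4.8 plus citrate pH 4.3, 37° C., 30-180 min, Na2CO3 stop, Ex 355/Em 448 nm.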

[3] = HTP-analysis of supernatants pretreated with base (MUGal hydrolysis); conditions: challenge at pH 7.1; activity of the variant/activity of WT GLA (SEQ ID NO: 5); yeast supernatant
How it was run: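 GLA variants secreted from yeast INVSc1; culture supernatants pre-incubated with McIlvaine buffer pH 7.0–8.2 or 200 mM bicarbonate pH 9.1–9.7 at 37° C. for 1–18 h. Residual activity: MUGal (4 mM stock) hydrolysis at pH 4.3–4.8, 37° C., 30–180 min, carbonate quench; fluorescence Ex 355/Em 448 nm.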

Molecule	Relative Activity of GLA Variants After No Challenge (NC) [1]	Relative Activity of GLA Variants After Challenge at pH 4.2 [2]	Relative Activity of GLA Variants After Challenge at pH 7.1 [3]
B1	+ (+ = 0.5 to 1.5 relative activity over WT GLA (SEQ ID NO: 5))	++ (++ = >1.5 to 2.5 relative activity over WT GLA (SEQ ID NO: 5))	++ (++ = >1.5 to 2.5 relative activity over WT GLA (SEQ ID NO: 5))
B2	++ (++ = >1.5 to 2.5 relative activity over WT GLA (SEQ ID NO: 5))	+ (+ = 0.5 to 1.5 relative activity over WT GLA (SEQ ID NO: 5))	++ (++ = >1.5 to 2.5 relative activity over WT GLA (SEQ ID NO: 5))
B3	++ (++ = >1.5 to 2.5 relative activity over WT GLA (SEQ ID NO: 5))	++ (++ = >1.5 to 2.5 relative activity over WT GLA (SEQ ID NO: 5))	++ (++ = >1.5 to 2.5 relative activity over WT GLA (SEQ ID NO: 5))
B4	+ (+ = 0.5 to 1.5 relative activity over WT GLA (SEQ ID NO: 5))	− (− = <0.5 relative activity to WT GLA (SEQ ID NO: 5))	− (− = <0.5 relative activity to WT GLA (SEQ ID NO: 5))
B5	++ (++ = >1.5 to 2.5 relative activity over WT GLA (SEQ ID NO: 5))	++ (++ = >1.5 to 2.5 relative activity over WT GLA (SEQ ID NO: 5))	++ (++ = >1.5 to 2.5 relative activity over WT GLA (SEQ ID NO: 5))
B6	+ (+ = 0.5 to 1.5 relative activity over WT GLA (SEQ ID NO: 5))	+ (+ = 0.5 to 1.5 relative activity over WT GLA (SEQ ID NO: 5))	+ (+ = 0.5 to 1.5 relative activity over WT GLA (SEQ ID NO: 5))
B7	+ (+ = 0.5 to 1.5 relative activity over WT GLA (SEQ ID NO: 5))	+ (+ = 0.5 to 1.5 relative activity over WT GLA (SEQ ID NO: 5))	+ (+ = 0.5 to 1.5 relative activity over WT GLA (SEQ ID NO: 5))
B8	++ (++ = >1.5 to 2.5 relative activity over WT GLA (SEQ ID NO: 5))	+ (+ = 0.5 to 1.5 relative activity over WT GLA (SEQ ID NO: 5))	+ (+ = 0.5 to 1.5 relative activity over WT GLA (SEQ ID NO: 5))
B9	+ (+ = 0.5 to 1.5 relative activity over WT GLA (SEQ ID NO: 5))	+ (+ = 0.5 to 1.5 relative activity over WT GLA (SEQ ID NO: 5))	+ (+ = 0.5 to 1.5 relative activity over WT GLA (SEQ ID NO: 5))
B10	+ (+ = 0.5 to 1.5 relative activity over WT GLA (SEQ ID NO: 5))	+ (+ = 0.5 to 1.5 relative activity over WT GLA (SEQ ID NO: 5))	+ (+ = 0.5 to 1.5 relative activity over WT GLA (SEQ ID NO: 5))
B11	+ (+ = 0.5 to 1.5 relative activity over WT GLA (SEQ ID NO: 5))	+ (+ = 0.5 to 1.5 relative activity over WT GLA (SEQ ID NO: 5))	+ (+ = 0.5 to 1.5 relative activity over WT GLA (SEQ ID NO: 5))
B12	+ (+ = 0.5 to 1.5 relative activity over WT GLA (SEQ ID NO: 5))	− (− = <0.5 relative activity to WT GLA (SEQ ID NO: 5))	− (− = <0.5 relative activity to WT GLA (SEQ ID NO: 5))
B13	+ (+ = 0.5 to 1.5 relative activity over WT GLA (SEQ ID NO: 5))	++ (++ = >1.5 to 2.5 relative activity over WT GLA (SEQ ID NO: 5))	+ (+ = 0.5 to 1.5 relative activity over WT GLA (SEQ ID NO: 5))
